Measured values: US20160146827

Tests used:
[1] = system: mRuby-thrombin-fLov2 (fLov2 fused to mRuby via an 11-residue linker ASLVPRGSRGS that harbors a thrombin cleavage site)
[2] = system: Venus-thrombin-LUMP (LUMP fused to Venus via an 11-residue linker ASLVPRGSRGS that harbors a thrombin cleavage site)

With thrombin protease the “fluorescence emission spectra against time after addition of thrombin” value [1] was “dramatic increase in fLov2 fluorescence and attenuation of the sensitized mRuby fluorescence”, the “FA value of LUMP in the intact substrate” value [2] was “FA values for the 51-kDa LUMP-Venus substrate of 0.255±0.003” and the “FA value of LUMP in the proteolyzed sensor” value [2] was “decreases to 0.166±0.001 in the proteolyzed sensor”. The “donor/acceptor ratio of fluorescence emission during proteolysis” value [2] was “donor/acceptor ratio increasing ~4.7-fold”.
